Series [1] addresses T1, Complement C1q (C1qA/C1qB/C1qC) (UniProt P02745;P02746;P02747 P02745:23-245,P02746:28-253,P02747:29-245). The series can be described thus: FP filter; nitrocellulose filter retention; concentration dependent binding. As to conditions: chain copies: 6; label: radiolabel (filter); biotin (pulldown). As for the experimental part:
(§1) To further investigate the interaction of aptamer B1 and B11 with C1q, we performed a filter retention assay. Radioactively labelled B1 and B11 were incubated with increasing concentrations of purified C1q and subsequently passed through a nitrocellulose membrane. The amount of oligonucleotides retained on membrane-immobilized C1q was then quantified by autoradiography. […] Similar results were obtained with B11 and B11rc in an Enzyme-Linked Oligonucleotide Assay (ELONA; see U.S. Pat. No. 5,789,163, which patent is incorporated herein in its entirety). […] As a control, the reverse complement of B11, B11RC, was used (squares).

For series [2], the target named is T1, Complement C1q (C1qA/C1qB/C1qC). Kind of series: ELONA; estimated; C1q fixed at 0.625 nM. The conditions noted are these: chain copies: 6; label: radiolabel (filter); biotin (pulldown, ELONA). As to the method: as §1

T1 sequence (P02745 23-245, chain 1 of 3): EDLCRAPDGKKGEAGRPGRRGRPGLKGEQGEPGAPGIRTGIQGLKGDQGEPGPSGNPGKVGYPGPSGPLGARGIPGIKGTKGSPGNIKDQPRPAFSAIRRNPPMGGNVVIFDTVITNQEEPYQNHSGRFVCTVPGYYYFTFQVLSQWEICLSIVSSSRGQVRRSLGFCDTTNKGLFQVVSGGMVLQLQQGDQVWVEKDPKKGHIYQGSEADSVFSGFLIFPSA
T1 sequence (P02746 28-253, chain 2 of 3): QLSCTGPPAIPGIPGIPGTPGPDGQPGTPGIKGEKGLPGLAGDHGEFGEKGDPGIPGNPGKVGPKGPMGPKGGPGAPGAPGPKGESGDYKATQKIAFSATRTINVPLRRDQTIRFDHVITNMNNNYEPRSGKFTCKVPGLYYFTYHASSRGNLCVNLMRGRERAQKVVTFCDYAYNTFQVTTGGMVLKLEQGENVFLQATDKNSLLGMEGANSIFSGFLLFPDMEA
T1 sequence (P02747 29-245, chain 3 of 3): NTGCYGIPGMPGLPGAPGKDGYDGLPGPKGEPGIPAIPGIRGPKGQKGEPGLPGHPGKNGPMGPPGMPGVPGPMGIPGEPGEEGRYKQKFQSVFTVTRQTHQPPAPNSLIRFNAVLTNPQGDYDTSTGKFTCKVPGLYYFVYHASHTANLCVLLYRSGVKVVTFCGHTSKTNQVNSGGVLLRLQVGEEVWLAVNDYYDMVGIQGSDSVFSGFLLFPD

B1: 83S-B1 full (ssDNA)
DNA: CTAGCATGACTGCAGTACGTACTATAGAACAATCCACCGCTTTAAATCAACTATCTTACTGTCTCTTATACACATCTGACGCTGCCGACGA
B1: in series [1], the binding result is reported as “binds”.

B2: 83S-B11 full (ssDNA)
DNA: CTAGCATGACTGCAGTACGTAACCCAATTCACATACACTCTCACCCCCACTAAACACTGTCTCTTATACACATCTGACGCTGCCGACGA
As to B2, in series [2], the Kd was approximately 40 nM.

In general, Kd refers to the constant that tells how readily two partners part at equilibrium.

(Values after patent US20190359983, “TARGETED OLIGONUCLEOTIDES” (CARIS SCIENCE, INC., published 2019).)
